Reference: the DeepSol protein solubility set

Assay: soluble on expression in E. coli; label from the status in PepcDB or PDB records

| Sequence | soluble on expression in E. coli |
| --- | --- |
| MATVAELKAVLKDTLEKKGVLGHLKARIRAEVFNALDDDREPRPSLSHENLLINELIREYLEFNKYKYTASVLIAESGQPVVPLDRQFLIHELNAFEESKDNTIPLLYGILAHFLRGTKDGIQNAFLKGPSLQPSDPSLGRQPSRRKPMDDHLRKEEQKSTNIEDLHVSQAVNR | soluble |
| MATYNGQGFIHDQLDSIRNQTLRPDYVLMRDDGSTDDTVKVVEDYIKEHRLDGWSITSNDKNLGWRLNFRQLLIDVLAYEVDYVFFSDQDDTWYHHKNKMQVDIMEERQDINLLSADIDIKKLSEEATIPNNFKFNGEETISKYPLDFSYHNYRQGWTFCLRKSFVDQVMTFYSDNLILSHDNLFAGVSGVIGSGYNLNRSVGEHKRHAENASGNILNMSSSYERHLQELYFVLSYYIILVPFLEKSSSSQLREAKAYLDFNQQRYKNAQNKDFVAILKQMMTKKRFYDSFSNRIRDLVFLLKDIKRSLEHHHHHH | soluble |
| MAVAALKALLPPERLRRLTPLGGFEARVYTDGERVYKVYRKEEAHLAGLEARRMARAGFGSLVLAVIQGAEGGVLVTRRFPGRPFAPEAFTSKTLAALSHLFLALHRLPEPGKVTQEELLSRLERFAESLHDQPEALSLVQALKREVGLAAGVERRFCHRDAWAGNLLLKAPEAEGPEVFLVDWARAGGDDPARDLALLKTGSLDLLGEEAARAALFRMARLYPKEVRERLAFYVPLTYLHDLHWFRTKEPQGFPQALEEKLPKALAFFRDFFPRRGAW | soluble |
| MAVDDAQALALFLRDRTGRSSHTLRAYGAELRRLMRWCGTHGFGPFSDLTRQQLLAYRHTLEHGSSGTANTTPPLSEATRTRALAVVASLYGYWYATGYLHANPAAGLSAGSRLEHHHHHH | not soluble |
| MAVMSYIDAITLAMREEMERDEKVFVLGEDVGKKGGVFKATHGLYDQFGEDRALDTPLAESAIAGVAIGAAMYGMRPIAEMQFADFIMPAVNQIVSEAAKIRYRSNNDWTCPITVRAPFGGGVHGALYHSQSVEAMFANQPGLKIVIPSTPYDAKGLLKAAIRDEDPVLFFEHKRAYRLIKGEVPEDDYVLPIGKADVKREGDDITVITYGLCVHFALQAAEKLAQDGISAHILDLRTVYPLDKEAIIEAASKTGKVLLVTEDNKEGSIMSEVAAIIAENCLFDLDAPIARLAGPDVPAMPYAPTMEKFFMVNPDKVEKAMRELAEF | not soluble |
| MAVPESKEALIKAINSQFTLLMKKIDAVPAERAFSPEMAGHAQGTQMSPANLVAYLLGWGNVVLKWHEDEEQGKTIDFPEAGYKWNQLGLLAQKFYQDYAPITDWAELIALLAANKLALIALVERYTDEQLYGEGWYGKWTRGRMIQFNTAAPYKNAAGRLRTWEKNKLEHHHHHH | not soluble |
| MAVTDLSLTNSSLMPTLNPMIQQLALAIAASWQSLPLKPYQLPEDLGYVEGRLEGEKLVIENRCYQTPQFRKMHLELAKVGKGLDILHCVMFPEPLYGLPLFGCNIVAGPGGVSAAIADLSPTQSDRQLPAAYQKSLAELGQPEFEQQRELPPWGEIFSEYCLFIRPSNVTEEERFVQRVVDFLQIHCHQSIVAEPLSEAQTLEHRQGQIHYCQQQQKNDKTRRVLEKAFGEAWAERYMSQVLFDVIQ | soluble |
| MAVTKSSSLLIVGAGTWGTSTALHLARRGYTNVTVLDPYPVPSAISAGNDVNKVISSGQYSNNKDEIEVNEILAEEAFNGWKNDPLFKPYYHDTGLLMSACSQEGLDRLGVRVRPGEDPNLVELTRPEQFRKLAPEGVLQGDFPGWKGYFARSGAGWAHARNALVAAAREAQRMGVKFVTGTPQGRVVTLIFENNDVKGAVTADGKIWRAERTFLCAGASAGQFLDFKNQLRPTAWTLVHIALKPEERALYKNIPVIFNIERGFFFEPDEERGEIKICDEHPGYTNMVQSADGTMMSIPFEKTQIPKEAETRVRALLKETMPQLADRPFSFARICWCADTANREFLIDRHPQYHSLVLGCGASGRGFKYLPSIGNLIVDAMEGKVPQKIHELIKWNPDIAANRNWRDTLGRFGGPNRVMDFHDVKEWTNVQYRDISKL | soluble |
| MAYKKVLLAVNVYENADIVINSAVDFAKKNNTQVLKVVTVIDCVAPFAPSIVDFQHSIEQEAKEALDKLVTKISGIKVEHEVLVGNPAAEIVEYAEESNCDVIVLGSHATHGINLLLGSVANTVLHKAKCDVLTVRVNDDENADSKAHSYKRLLVPTDLENDSYVVVDKAKDIAKLYSAKIDTAFVIPNDSISLMTYETDKVETTLDKFAEKNGITGEKSVMIGGISNSLLEKAAENKNDLIVVGSHRRGAIGRFFLGSTANSILHQANVDVLVVRLK | soluble |
| MAYVKERIYESMFIIAPNVPEEERENLVERVKKIIEERVKGKIDKVERMGMRKFAYEIKKFNEGDYTVIYFRCDGQNLQELENFYRVTPEIIRWQTFRRFDLEKKERKAQREKAAAEATESSEGGSED | not soluble |
| MCAVLGDNSVSYNTMKFWFEKIKKKNYDLDDKPRSGRPRLDIDEDISRALEDDPRSMSREISATLKRPHTTIINHLHESGRVPKFGQLVPHNLSDSQKNLRCDLSLSLLTRKRTTDWVKDITTGDEKWVLYVNHTRKKQWVPVEEHAEPDLKGELHEKKVLLSIWWDSMGVIFRELLPDGATINADLYCIQLEKVVHAHQLHRPRGSKLLLLHDNARPHTALKTRQKLQTLGIEVLPHPPYSPDLAPTDYHLFRSLQNHLAGQKFHDRKAVETWLDDFFASKSQEFYAEGIAQLPLRWQEVIDTNGEYITH | not soluble |
| MCKNPISIIIRIQHNIKVLPEILKACEQLHPLEIILTINGYIDDSIDIAQSYNCKIITLEEPSELNNCYVIGATKAKGKYLLFLDANYIIQSSLLTQFLQPLLDESADIVLNNLDDFFYQKQKPTIEMIWQQVTNHFFHRPDLHVNSLLFPPYAITKEILDAITPESLLNPILAQMKIIKNKFRISNHFKISIPQIPSFPSKQLIRYHLEAIENWVNILQDSRGNYTDNNRRRDIILELQNGEQRAIPKIITGKKFYSNTYGNKQLSIIIPVQNEEKTIESIIFEVQKLKPLEIIIIVNGSTDKTEELAKNCGATVITYKEALGIDTGRAVGAYFAKGDILLFIDGDFLIPSSDLLPFVQSVQNGTDLALNKLEHYYMYRVPYTIVTACKHVVNLACNRKDLGMGSTTAVPHAFSRKCIDTIGFDSLLSPTLSQVKTILAGLHVQNVHSIDVDKINRVRPEKHFSQEGYLSLATQQIIGDHIEAISYLIEQKRNTEYFLEHHHHHH | not soluble |
| MCMDKNVMWLRERINKVIKALEENNMNGYLVNSKEELISKIEELTNSGDIVACGGSMSLFEAGVIDHLRSGRYEFLDRYKEGLKPEDIKKIYRDAFSSDVYFTSTNAITEEGEIYNVDGNGNRVAAMLYGPDKVIIVAGYNKIVENLSEAIQRNRRISAPANAKRLNKKTPCAKVGNCMDCKSPEKICREYTLIRSQSNSNRIHVIFLNEELGYLEHHHHHH | soluble |
| MCRHCHFLSAIAPVSGTNKSQPGNKWDMVLLVPFDGSALSKAALTRAMEFADYRDEDITALSVIPDDAAYAREHGWLDADEAFTVEAVADRMREQAESVAPAASFRYEVPEDVSSMASTTTNITRTIREVAHEEEASIVFIGSENAGRVSTPVCSVGSPVSEDPEYDVHIVRHP | not soluble |
| MCRLAVFALLAVAAVSVYGQPAGGQDVPPFLRNATPAQLQSFQQLIQANGHLTETALDGKVQAWVNQQGGKVAADWADFQKFIKGQQGQAEAAHQAAVSNFSPAAKKADADLTAISNDSSLSVQAKGQKIQAYLNSLPANVKAELEKAQGQ | soluble |
| MDAEEKMGVELSSPSAIMEHARRLYMSKDYRSLESLFGRCLWKSYNLDLWMLYIEYVRKVSQKKFKLFEVYEFTLGQFENYWDSYGLFKEYIEELGKIEDEQTRIEKIRNGYMRALQTPMGSLSELWKDFENFELELNKITGKKIVGDTLPLFQSSFQRYQQIQPLIRGWSVKNAARLIDLEMENGMKLGGRPHESRMHFIHNYILDSFFYAEEVYFFYSEYLIGIGQKEKAKKVVERGIEMSDGMFLSLYYGLVMDEEAVYGDLKRKYSMGEAESAEKVFSKELDLLRINHLNYVLKKRGLELFRKLFIELGNEGVGPHVFIYCAFIEYYATGSRATPYNIFSSGLLKHPDSTLLKEEFFLFLLRIGDEENARALFKRLEKTSRMWDSMIEYEFMVGSMELFRELVDQKMDAIKADAILPPLPPREHNVQMEGILGRYHCFLDSFNFLDLKIRDNSRLLDEFMENLPKISQQNNVLSNLRVEKVISLLKSVQ | soluble |
| MDAENEDFDGAEDSDHTDNDKKEDELSLDNVLRLGGTKADYVMLAGISDTTELINGGKKVIIDDLEEGELEDFIKQLGIRAYADQQIIQDEEDPASSEPTQKEGKKAKGSKVKEDAAPNVKNKVTPSTQATKTSVQSTNLANATGKKAKQKPANLFEFIPRQFLLIKPGGKWFDIEYTSEGTSVAQNESLTCQYKALAQKLYENETALYKSKKSLQKGANSAWMKTRKLRTFSQHPFEELEEKSSGNKDTRDRRLILWYFEHQLKLQIADFVVTLDELAHDMVEATKMRALTTAYELLCNQPEQEKLLLVQIVNKLEDA | soluble |
| MDAGLDARGKGWARAITRLCDEHLYYLMLYFRWFDEDSWRVLKPVFFGSLPFGVRDAVAWAMRRKVRATLRAQGLGVHGRDELLAFARDDLDALDGLLGQVPYYGGEHPCSADAAAYGILANLIEATLDTPLSHVARGYPRLVAYCERMRERVWSELEHHHHHH | not soluble |
| MDAIILQENIEGLLSLVRMLLPDGGSAGCVYLDDLSALQRSIHEKINDLYSQRGETPEQDATLCLAILQGYNVSMYANPEDEERKQAVLTRSLSLLDVLPPSLLKQQLSAVCYGMQELCEIN | not soluble |
| MDALSRLLTLNAPQGSIDKNCPLGGDWQLPHAAGELSVIRWHTVTQGEAQLEMPTGDAMTLTPGKVVILPQNSAHRLRQSGESPTHIVCGSLRLHTTSRYFLTALPEVLCLAPPPHSPASIWINATILLLQQESERHLPGADVLYSQQCATLFTLAVRDWLSQAGTAKSVLNLLLHPRLGRVILHMLETPAHPWTVETLAQRVHMSRASFAQLFRDVSATTPLAVLTTLRLQIAAQTLSREVLPVMVIAESVGYASESSFHKAFVREFGCTPGEYRKRVSALGR | not soluble |
| MDCIRVTTIGYYHRDGDMRVTPGLLPKILNRECLKPLREDFFNLNIEVPDSGQGENNMVSFLDYISQTKCLEDAQPDFVTNKQILTALTGNKPFTIHAIHLKGTIFSFKSGEVRYQDTKNFGGAFEHFCTRTRNDEQLETDDTVRKAVFKAEIPRGNTQFYRVLYSGQIDAIDNEVDRKHYELKIMSQGLNEYFWKEKSCKFYWQSVFGNAPVLIIGSRSGQYSTQTTNNYPPYSLYKVEELKRDRIPSMAARCRKIPGRFGPAPPWKISEGEDNALYFLDLVKDNVINDGDCFSFTRTDENPDWDVKRDEESAAQFRDVVLQYLDR | not soluble |
| MDCMRKLDRVDMQLVKILSENSRLTYRELADILNTTRQRIARRIDKLKKLGIIRKFTIIPDIDKLGYMYAIVLIKSKVPSDADKVISEISDIEYVKSVEKGVGRYNIIVRLLLPKDIKDAENLISEFLQRIKNAENVEVILISEVRKFEII | soluble |
